This note sets out measurements from patent US20230212319A1, “NOVEL ANTIGEN BINDING DOMAINS AND SYNTHETIC ANTIGEN RECEPTORS INCORPORATING THE SAME” (University of Southern California, priority 2020, published 2023).

Common to all, as to format: cell-based
Experiment [1] concerns Nalm6 cells. The experiment in a line: JNG assay, co-culture with Nalm6 cells. The following applies: co-culture with Nalm6. In outline: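 Scoring uses % GFP+ reporter cells above the parental control, where +/-, +, 2+, 3+, 4+ and 5+ correspond to about 5, 10, 20, 30, 40 and 50%. Effectors were SAR-expressing Jurkat NFAT-GFP cells cocultured with targets (E:T ~1:2, ~4–18 h).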

Experiment [2] relates to U266 cells. The experiment in a line: JNG NFAT-GFP induction on co-culture with U266.
In experiment [3] the test system is L363 cells. In words: JNG assay, co-culture with L363 cells. The following applies: co-culture with L363. The method, boiled down: (§1)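 Read-out is NFAT-driven GFP measured by flow cytometry after ~4–18 h co-culture of SAR-expressing JNG cells with target cells (E:T about 1:2). SARs were introduced by lentiviral spinfection and selected with puromycin or blasticidin when possible; scores (+/- to 5+ ≈ 5–50% GFP+) are relative to parental JNG cells.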

The subject of experiment [4] is RAJI-CD19-KO cells. The experiment in a line: JNG assay, co-culture with RAJI-CD19-KO cells. The settings on record: co-culture with Raji-CD19-KO. The method, boiled down:
as §1

Experiment [5] deals with RAJI cells. The experiment in a line: JNG assay, co-culture with RAJI cells. The following applies: JNG cells expressing construct, co-culture with Raji. In outline: as §1

B1: 22217 (protein)
chain: MALPVTALLLPLALLLHAARPACEVQLLESGGGLIQPGGSLRLSCAASGFTFSSHAMTWVRQAPGKGLEWVSAISGSGDYTHYADSVKGRFTISRDNSKNTVYLQMNSLRAEDSAVYYCAKDEDGGSLLGHRGQGTLVTVSSGTGAVVRGAEFDIQMTQSPSSLSASVGDRVTITCKASDHINNWLAWYQQKPGQAPKLLIYGATTLETGVPSRFSGSGSGTDYTLTISSLQPEDFATYYCQQSWNTPWTFGQGTKLEIKRLEDLKNVFPPEVAVFEPSKAEIAHTQKATLVCLATGFYPDHVELSWWVNGKEVHSGVCTDPQPLKEQPALNDSRYCLSSRLRVSATFWQNPRNHFRCQVQFYGLSENDEWTQDRAKPVTQIVSAEAWGRADCGITSASYHQGVLSATILYEILLGKATLYAVLVSALVLMAMVKRKDSRGRAKRSGSGATNFSLLKQAGDVEENPGPTSATMDWIWRILFLVGAATGAHSGPEVQLVESGGGLVQAGGSLRLSCAASGRTFSMGWFRQAPGKEREFVAAITYSGGSPYYADSVKGRFTISRDNAKNTVYLQMNSLKPEDTAVYYCAANPTYGSDWNAENWGQGTQVTVSSGSGGGGSGGGGSGGGGSFEQVQLQQPGAELVKPGASVKMSCKASGYAFSSYWINWMKQKPGQGLEWIGQIYPGDGDTNYNGKFKGRATLTADTSSSTAYMQLSSLTSEDSAVYFCARSITTVVGCAMDYWGQGTSVTVSSTRIQNPDPAVYQLRDSKSSDKSVCLFTDFDSQTNVSQSKDSDVYITDKCVLDMRSMDFKSNSAVAWSNKSDFACANAFNNSIIPEDTFFPSPESSCDVKLVEKSFETDTNLNFQNLSVIGFRILLLKVAGFNLLMTLRLWSSRAKRSGSGVKQTLNFDLLKLAGDVESNPGPSRGHMTEYKPTVRLATRDDVPRAVRTLAAAFADYPATRHTVDPDRHIERVTELQELFLTRVGLDIGKVWVADDGAAVAVWTTPESVEAGAVFAEIGPRMAELSGSRLAAQQQMEGLLAPHRPKEPAWFLATVGVSPDHQGKGLGSAVVLPGVEAAERAGVPAFLETSAPRNLPFYERLGFTVTADVEVPEGPRTWCMTRKPGA
As for B1, in experiment [1], the “NFAT-GFP ASSAY: Nalm6” value is 4+ (refer to approximately 5%, 10%, 20%, 30%, 40% and 50% GFP positive cells). Also, in experiment [2], the “NFAT-GFP ASSAY: U266” value is 4+ (refer to approximately 5%, 10%, 20%, 30%, 40% and 50% GFP positive cells). Also, the “NFAT-GFP ASSAY: L363” value in experiment [3] is 3+ (refer to approximately 5%, 10%, 20%, 30%, 40% and 50% GFP positive cells). The “NFAT-GFP ASSAY: Raji-CD19-KO” value in experiment [4] was 3+ (refer to approximately 5%, 10%, 20%, 30%, 40% and 50% GFP positive cells). Also, in experiment [5], the “NFAT-GFP ASSAY: Raji” value was “+ (refer to approximately 5%, 10%, 20%, 30%, 40% and 50% GFP positive cells)”.
